The text below walks through data of patent publication US20190218253A1 (NATIONAL UNIVERSITY OF SINGAPORE, published 2019).

For assay [1], the target named is T1, retinoblastoma binding protein 4 (RBBp4) (UniProt Q09028 1-425).
T1 construct: Bought protein; Crystal structure numbering runs at least over residues 33-404; also called RbAp48
As to the kind of experiment: fluorescence polarization competition: peptide titrated into RBBp4 + C-terminal FITC-labelled WT SALL4 peptide. As to the method:
(§1) Reactions were incubated at room temperature before the plate was read with an Envision instrument (Perkin Elmer). IC₅₀ values of peptides were determined using Prism (GraphPad).
For orientation: Polarisation of emitted light reports the rotation of a fluorescent probe.

Assay [2] deals with T1, retinoblastoma binding protein 4 (RBBp4). Briefly: fluorescence polarization competition, ratio of IC50s. As to the method:
These three substitutions (Gln4Phe, Pro7Phe, and His9Trp) were incorporated into peptide 46 ([…], named FFW hereof, (SEQ ID NO: 14)).
as §1

Assay [3] has the same target. Briefly: fluorescence polarization competition: peptide titrated into RBBp4 + C-terminal FITC-labelled WT SALL4 peptide. The source holds these as a separate data set.
Assay [4] shares this target. Briefly: isothermal titration calorimetry, peptide titrated into RBBp4, 1:1 binding model. As to the method: (§2) ITC was carried out with an Auto-iTC200 instrument from Microcal Inc. at 25° C. […] of RBBp4 in 50 mM Tris and 100 mM NaCl at pH 7.4 was loaded into the ITC cell. Sal14 peptide at […] was auto-loaded into the syringe. The titration was carried out with 18 injections of 2.4 μl, performed over a period of 30 min with stirring at 1000 rpm. The ITC data was analysed using Origin software from Microcal.
In general terms: In ITC the heat of successive injections is recorded.

Assay [5] shares this target. As to the kind of experiment: SPR (Biacore T200), RBBp4 amine-coupled to CM5 chip, peptide as analyte; surface plasmon resonance. On the procedure:
SPR studies were performed using a Biacore T200 biosensor (GE Healthsciences). ˜12,000 resonance units (RU) of RBBp4 were immobilised by amine coupling to the carboxymethylated dextran matrix of a Series S CM5 chip (Biacore, GE Healthcare). […] The association time and flow rate were set at 60 s and 30 μl/min respectively.

Assay [6] has the same target. As to the kind of experiment: cell-based or functional assay.
Assay [7] shares this target. Briefly: isothermal titration calorimetry, peptide titrated into RBBp4, 25 °C; isothermal titration calorimetry. On the procedure: as §2

Where two headings read alike, the source gives them in different places.

T1 sequence (Q09028 whole entry, the tested form may be a part): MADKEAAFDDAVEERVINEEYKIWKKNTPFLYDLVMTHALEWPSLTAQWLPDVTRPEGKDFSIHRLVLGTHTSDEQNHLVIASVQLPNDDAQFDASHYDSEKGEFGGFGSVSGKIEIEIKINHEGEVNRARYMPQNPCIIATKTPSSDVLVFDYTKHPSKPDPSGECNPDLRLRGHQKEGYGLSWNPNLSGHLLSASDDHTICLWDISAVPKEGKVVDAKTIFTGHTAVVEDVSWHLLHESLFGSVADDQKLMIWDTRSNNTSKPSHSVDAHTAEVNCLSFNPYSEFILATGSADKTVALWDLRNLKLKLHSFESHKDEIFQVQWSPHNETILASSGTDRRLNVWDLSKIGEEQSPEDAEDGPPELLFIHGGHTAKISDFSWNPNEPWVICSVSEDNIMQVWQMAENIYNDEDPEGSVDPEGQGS
T1 sequence (Q09028 whole entry): as the sequence (Q09028 whole entry, the tested form may be a part) above

B1: Peptide 46 (Ac-RRKFAKFQWI-NH2), FFW (peptide)
peptide: Ac-RRKFAKFQWI-NH2
notes: Gln4Phe, Pro7Phe and His9Trp of peptide 6; also called FFW peptide
As to B1, the IC50 in assay [1] stood at 23 nM. Further, the “fold increase in affinity compared with the 12-residue WT peptide” value in assay [2] was > 56 fold.

B2: WT SALL4 peptide (1-12 aa), MSRRKQAKPQHI (peptide)
peptide: MSRRKQAKPQHI
notes: As used in ITC, SPR, crystal structure and the alanine-scan FP assay; also called SALL4 WT; 12-aa SALL4 peptide
For B2, the IC50 in assay [3] turned out to be 1000 nM. Besides, in assay [4], the Ka stood at 960000 M⁻¹. In assay [5], this molecule gave a Kd of 1500 nM, a koff of 0.026 s⁻¹ and a kon of 16800 M⁻¹ s⁻¹. Besides, the “PTEN expression by Q-PCR in SNU398 cells treated with peptide” value in assay [6] is 3 fold. The Kd in assay [7] amounted to 1040 nM.

B3: Peptide 24 (Ac-RRKFAKPQHI-NH2) (peptide)
peptide: Ac-RRKFAKPQHI-NH2
As to B3, in assay [3], the IC50 amounted to 50 nM. In assay [2], the “fold enhancement in binding affinity over peptide 6” value amounted to 7 fold.

B4: Peptide 41 (Ac-RRKQAKPQWI-NH2) (peptide)
peptide: Ac-RRKQAKPQWI-NH2
B4: the IC50 in assay [1] was 120 nM. For the same molecule, the “fold improvement of binding affinity compared with peptide 6” value in assay [2] turned out to be 3 fold.

For orientation: IC50 means the midpoint of a concentration-inhibition curve. As usually defined, the Kd is the free concentration of one partner at which half of the binding sites on the other are occupied at equilibrium, for simple one-to-one binding. Low readings indicate tighter binding, high ones weaker binding. The term koff denotes a measure of how fast the partners let go of each other. One may read the kon as the rate constant with which the complex forms.
